In assay [1] the target is Human Enolase 241cit peptide as offered to human PBMCs (human).
Assay [2] shares this target. The source holds these as a separate data set.
The target in assay [3] is Human Enolase 241 wt peptide as offered to human PBMCs (human).
For assay [4], the target named is Mouse Enolase 241-260 citrullinated peptide presented by HLA-DR4 (mouse; human).

Read-outs that look alike come from different tables or passages of the source.

“PBMCs of healthy donor 4 (cells without a defined receptor)”: in assay [1], the Thymidine proliferation assay, proliferation index (proliferation index) was determined as 28.

For the substance “PBMCs of healthy donor 2 (cells without a defined receptor)”, the Thymidine proliferation assay, proliferation index (proliferation index) in assay [2] worked out at 2.7.

Consider “PBMCs of healthy donor 1 (cells without a defined receptor)”, for which the results for the Thymidine proliferation assay, proliferation index (proliferation index) in assay [3] and in assay [2] were 1.2 and 28.6, respectively.

With “Splenocytes of HLA-DR4 transgenic mice immunised with a DNA construct encoding mouse enolase (cells without a defined receptor)”, the IFNγ Elispot (/million splenocytes) in assay [4] stood at 180.

The values above are taken from patent US20180207291A1.
